The values that follow come from patent publication US20050153894 (published 2005).

For one assay, the target named is cyclin A (human, UniProt P20248). Nature of the assay: competition, immobilised p21 peptide.
Another assay has as its target cyclin D1 (human, UniProt P24385). The assay is described as follows: competition.

Square brackets hold non-standard residues; d marks the D form. Ends that are not written are not given here.

cyclin D1, sequence (P24385 whole entry): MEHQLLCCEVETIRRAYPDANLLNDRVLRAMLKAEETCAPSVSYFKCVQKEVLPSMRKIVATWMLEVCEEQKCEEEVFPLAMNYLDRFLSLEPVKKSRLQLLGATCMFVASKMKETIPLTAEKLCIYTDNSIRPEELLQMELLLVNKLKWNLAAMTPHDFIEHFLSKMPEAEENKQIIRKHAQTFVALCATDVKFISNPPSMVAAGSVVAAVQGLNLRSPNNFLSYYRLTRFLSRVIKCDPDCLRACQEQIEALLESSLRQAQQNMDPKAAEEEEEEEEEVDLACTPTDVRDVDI
cyclin A, sequence (P20248 whole entry): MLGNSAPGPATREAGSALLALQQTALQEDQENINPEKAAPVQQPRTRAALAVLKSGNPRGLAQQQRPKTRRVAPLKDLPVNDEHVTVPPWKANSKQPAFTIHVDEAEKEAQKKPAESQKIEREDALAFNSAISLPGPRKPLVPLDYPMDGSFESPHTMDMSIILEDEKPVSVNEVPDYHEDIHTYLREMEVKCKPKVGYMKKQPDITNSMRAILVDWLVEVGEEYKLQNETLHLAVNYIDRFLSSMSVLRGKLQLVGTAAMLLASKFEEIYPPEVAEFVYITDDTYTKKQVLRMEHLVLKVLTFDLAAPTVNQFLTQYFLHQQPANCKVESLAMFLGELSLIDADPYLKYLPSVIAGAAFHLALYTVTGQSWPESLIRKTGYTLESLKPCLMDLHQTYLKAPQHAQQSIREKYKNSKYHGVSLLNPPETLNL

B1: GST-pRb(772-928) (protein)
chain: ASTRPPTLSPIPHIPRSPYKFPSSPLRIPGGNIYISPLKSPYKISEGLPTPTKMTPRSRILVSIGESFGTSEKFQKINQMVCNSDRVLKRSAEGSNPPKPLKKLRFDIEGSDEADGSKHLPGESKFQQKLAEMTSTRTRMQKQKMNDSMDTSNKEEK
For the molecule B1, in the assay with cyclin A, the IC50 (as a rule, the concentration that inhibits the measured activity by half) is 9 µM.
KA[code U]RRLFG [p21 N-terminus KAURRLFG] gave a half-maximal inhibitory concentration (IC50) with cyclin D1 of 134 µM.
On the same count and under the same terms, under KA[code U]RRLIF [KAURRLIF] stands 20 µM; under SA[code U]RNLFG [p27 SAURNLFG], more than 200 µM.
